Source: article PMC7988105

Tests used:
[1] = target: PTPδA3B– extracellular domain fused to Fc; test: pull-down; conditions: parent: est. 100; read off a plot
[2] = target: NRXN1β (lacking SS4) Fc fusion used as bait in the pull-down; test: pull-down; soluble recombinant proteins mixed at 0.03 μM each in HBSS, 2 mM CaCl2, 1 mM MgCl2, 3 h, then Protein A-Sepharose 1 h, room temperature; NLGN3-His6 detected with anti-His
[3] = target: NLGN3 ECD HSE/AAA mutant (H279A S280A E281A) with His6 tag (mouse) (UniProt Q8BYM5); test: ITC; NLGN3 ECD (20 µM) in the cell, PTPδ Ig1–Fn1 (200 µM) injected; 20 mM Tris-HCl pH 8.0, 150 mM NaCl, 25 °C; one-site model
Sequence of NLGN3 ECD HSE/AAA mutant (H279A S280A E281A) with His6 tag (mouse) (Q8BYM5 35-684 H279A/S280A/E281A): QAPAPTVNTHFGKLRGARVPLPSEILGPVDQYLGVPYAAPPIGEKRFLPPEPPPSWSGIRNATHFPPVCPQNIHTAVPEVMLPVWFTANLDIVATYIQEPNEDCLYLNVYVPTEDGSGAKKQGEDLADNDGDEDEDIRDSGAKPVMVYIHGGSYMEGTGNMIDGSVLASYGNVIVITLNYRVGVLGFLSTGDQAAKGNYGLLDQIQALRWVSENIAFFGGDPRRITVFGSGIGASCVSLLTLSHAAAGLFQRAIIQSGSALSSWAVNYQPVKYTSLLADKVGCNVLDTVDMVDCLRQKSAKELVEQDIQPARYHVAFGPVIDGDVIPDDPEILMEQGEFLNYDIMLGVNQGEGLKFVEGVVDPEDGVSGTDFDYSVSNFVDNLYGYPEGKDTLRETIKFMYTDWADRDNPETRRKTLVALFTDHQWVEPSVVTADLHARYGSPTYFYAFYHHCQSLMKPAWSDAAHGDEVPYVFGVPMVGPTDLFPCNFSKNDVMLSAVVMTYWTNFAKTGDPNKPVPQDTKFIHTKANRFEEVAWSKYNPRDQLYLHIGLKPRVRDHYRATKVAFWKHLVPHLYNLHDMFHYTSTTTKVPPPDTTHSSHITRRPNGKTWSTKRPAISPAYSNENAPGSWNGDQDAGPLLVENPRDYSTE

[4] = target: NLGN3 ECD MF/IS mutant (M614I F615S) with His6 tag (mouse) (UniProt Q8BYM5); test: as above
Sequence of NLGN3 ECD MF/IS mutant (M614I F615S) with His6 tag (mouse) (Q8BYM5 35-684 M614I/F615S): as the sequence (Q8BYM5 35-684 H279A/S280A/E281A) above, with A245H, A246S, A247E, M580I, F581S counted along it

[5] = target: mouse NLGN3 ECD (residues 35–684) with C-terminal His6 tag (mouse) (UniProt Q8BYM5); test: as above
Sequence of mouse NLGN3 ECD (residues 35–684) with C-terminal His6 tag (mouse) (Q8BYM5 35-684): as the sequence (Q8BYM5 35-684 H279A/S280A/E281A) above, with A245H, A246S, A247E counted along it

Row | Substance | percent of parent [1] | also measured
1 | NLGN3 ECD R448C mutant (R/C; equivalent to human R451C) with His6 tag (from UniProt Q8BYM5 35-684) (domain or fragment) | – | pulldown efficiency (% of wild-type) (% of wild-type) [2]: 40
2 | PTPδA3B– Ig1–Fn1 (domain or fragment) | – | Kd [3]: 1.4 µM; Kd [4]: 27 µM; Kd [5]: 4.4 µM
3 | mouse NLGN3 ECD (residues 35–684) with C-terminal His6 tag (from UniProt Q8BYM5) M614I; F615S | 14 % WT | –
4 | mouse NLGN3 ECD (residues 35–684) with C-terminal His6 tag (from UniProt Q8BYM5) D362A; E372A; N375A | 16 % WT | –

Continued, in another order:

Row | percent of parent [1] | Substance | also measured
5 | 88 % WT | mouse NLGN3 ECD (residues 35–684) with C-terminal His6 tag (from UniProt Q8BYM5) H279A; S280A; E281A | –
6 | 11 % WT | mouse NLGN3 ECD (residues 35–684) with C-terminal His6 tag (from UniProt Q8BYM5) M614A; F615A | –
